T1: Human CD37 (human, UniProt P11049 1-281)
T1 construct: Endogenous CD37 on the human lymphoma cell line Daudi; also called Leukocyte Antigen CD37; GP52-40
T1 sequence: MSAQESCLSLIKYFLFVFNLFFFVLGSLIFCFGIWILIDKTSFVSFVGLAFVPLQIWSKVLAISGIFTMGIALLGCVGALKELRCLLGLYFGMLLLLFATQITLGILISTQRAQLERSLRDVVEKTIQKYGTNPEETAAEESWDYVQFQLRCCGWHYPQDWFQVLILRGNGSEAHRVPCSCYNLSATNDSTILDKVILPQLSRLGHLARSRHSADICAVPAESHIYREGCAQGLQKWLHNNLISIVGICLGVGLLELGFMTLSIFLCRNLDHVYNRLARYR

T2: Human CD20 (human, UniProt P11836 1-297)
T2 construct: Endogenous CD20 on the human lymphoma cell line Daudi
T2 sequence: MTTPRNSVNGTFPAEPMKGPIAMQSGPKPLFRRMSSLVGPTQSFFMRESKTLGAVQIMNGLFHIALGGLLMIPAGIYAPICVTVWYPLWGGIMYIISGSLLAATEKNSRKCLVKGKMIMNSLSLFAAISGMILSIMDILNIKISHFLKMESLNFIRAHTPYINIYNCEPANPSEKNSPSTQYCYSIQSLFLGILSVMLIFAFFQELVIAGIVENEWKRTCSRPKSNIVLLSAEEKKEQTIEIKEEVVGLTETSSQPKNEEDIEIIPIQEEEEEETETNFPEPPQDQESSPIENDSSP

B1: IgG1-CD37-37.3-E430G (antibody, V domains shown)
VH: QVQVKESGPGLVAPSQSLSITCTVSGFSLTTSGVSWVRQPPGKGLEWLGVIWGDGSTNYHSALKSRLSIKKDHSKSQVFLKLNSLQTDDTATYYCAKGGYSLAHWGQGTLVTVSA
VL: DIQMTQSPASLSVSVGETVTITCRASENIRSNLAWYQQKQGKSPQLLVNVATNLADGVPSRFSGSGSGTQYSLKINSLQSEDFGTYYCQHYWGTTWTFGGGTKLEIKR
modifications: Conjugated to Alexa Fluor 555 or 647 in the FRET assays only (about 3 dyes per antibody, sites not stated).
notes: IgG1 kappa with E430G (EU numbering) in the Fc; also called hexamerization-enhanced CD37 antibody
B2: IgG1-CD37-37.3 (antibody, V domains shown)
VH: B1 VH
VL: DIQMTQSPASLSVSVGETVTITCRASENIRSNLAWYQQKQGKSPQLLVNVATNLADGVPSRFSGSGSGTQYSLKINSLQSEDFGTYYCQHYWGTTWTFGGGTKLEIK
notes: Expressed as IgG1 kappa with wild type Fc; In the FRET assays it was conjugated to Alexa Fluor 555 or 647 (about 3 dye molecules per antibody)
B3: IgG1-CD20-11B8-E430G (antibody, V domains shown)
VH: EVQLVQSGGGLVHPGGSLRLSCTGSGFTFSYHAMHWVRQAPGKGLEWVSIIGTGGVTYYADSVKGRFTISRDNVKNSLYLQMNSLRAEDMAVYYCARDYYGAGSFYDGLYGMDVWGQGTTVTVSS
VL: EIVLTQSPATLSLSPGERATLSCRASQSVSSYLAWYQQKPGQAPRLLIYDASNRATGIPARFSGSGSGTDFTLTISSLEPEDFAVYYCQQRSDWPLTFGGGTKVEIKR
modifications: Conjugated to Alexa Fluor 555 or 647 in the FRET assays only (about 3 dyes per antibody, sites not stated).
notes: IgG1 kappa with E430G (EU numbering) in the Fc; also called Hx-CD20-11B8; Hx-CD20-11B
B4: IgG1-CD20-11B8 (antibody, V domains shown)
VH: B3 VH
VL: EIVLTQSPATLSLSPGERATLSCRASQSVSSYLAWYQQKPGQAPRLLIYDASNRATGIPARFSGSGSGTDFTLTISSLEPEDFAVYYCQQRSDWPLTFGGGTKVEIK
notes: Expressed as IgG1 kappa with wild type Fc; In the FRET assays it was conjugated to Alexa Fluor 555 or 647; also called WT type II CD20 antibody IgG1-CD20-11B8

In assay [1] the target is T1, Human CD37. Put plainly: conclusion from CDC assays on Daudi and WIL2-S cells.
Assay [2] addresses T1, Human CD37. In words: flow cytometry FRET with fluorophore-conjugated antibodies on Daudi cells. How it is done:
(§1) 0.5×10⁶ Daudi cells/well were incubated with 10 μg/mL A555-conjugated donor antibodies and/or 10 μg/mL A647-conjugated acceptor antibodies in a total volume of 100 μL RPMI/0.2% BSA in 96-well round-bottom plates (Greiner Bio-One, Cat No 650101) for 15 minutes at 37° C. in a water bath. Cells were washed twice with FACS buffer, pelleted by centrifugation (3 min at 300×g) and resuspended in 200 μL PBST. Mean fluorescence intensities (MFI) were determined by flow cytometry on a FACS Canto II (BD Biosciences) by recording 10,000 events at 585/42 nm (FL2, donor A555) and […] (FL3), both excited at 488 nm, and at 660/20 nm (FL4, acceptor A647), excited at 635 nm. Unquenched donor fluorescence intensity was determined from cells incubated with only A555-conjugated donor antibodies, and non-enhanced acceptor intensity was determined from cells incubated with only A647-conjugated acceptor antibodies. Proximity-induced FRET was determined by measuring the energy transfer between cells incubated with both A555-conjugated donor and A647-conjugated acceptor antibodies. MFI values were used to calculate FRET according to the following equation: energy transfer (ET)=FL3(D,A)−FL2(D,A)/a−FL4(D,A)/b, wherein a=FL2(D)/FL3(D), b=FL4(A)/FL3(A), D is donor, A is acceptor and FLn (D,A)=donor+acceptor. ET values obtained were normalized according to the following equation: normalized energy transfer (%)=100*ET/FL3(D, A).

The target in the assay “IgG1-CD37-37.3-E430G” is B1. Put plainly: FRET by flow cytometry, A555/A647-conjugated antibodies on Daudi cells; Fc-Fc interaction between cell-bound antibodies. How it is done: as §1, with “ET values obtained were normalized according to the following equation: normalized energy transfer (%)=100*ET/FL3(D, A).” left out
The next assay addresses T2, Human CD20. Put plainly: flow cytometry FRET with fluorophore-conjugated antibodies on Daudi cells. How it is done: as §1

In the case of B1, the binding result with Human CD37 [1] is given as “binds”.
On to B2, for which the binding result in the assay with Human CD37 [2] is “binds”.
On to B3, for which the binding result with IgG1-CD37-37.3-E430G and in the assay with Human CD20 was “binds” each time.
Take B4: the binding result in the assay with Human CD20 is recorded as “binds”.
